From US20250115664A1 (Bristol-Myers Squibb, published 2025)
Changes are numbered by the printed parent chain. In names and notes the source's numbering stands.

How the values were obtained:
[1] = biological target: T1, human TIM3 on cells (transfected CHO cells, activated human T cells, Th1 cells, TILs) (human, UniProt Q8TDQ0 22-300); assay: flow cytometry, human TIM3 positive cells (activated human T cells per paragraph 648), GMFI (PE); EC50 unit inferred, unit taken from the axis label ug/mL
T1 construct: also called hTIM3

[2] = biological target: T2, Human TIM3-IgV (Example 22) (human, UniProt Q8TDQ0 22-130); assay: SPR Biacore T200, 37 C; antibody captured on anti-hFc chip, TIM3 protein as analyte, single cycle kinetics, 1:1 model
T2 construct: also called hTim3-IgV; hTIM3-IgV

[3] = biological target: T3, cynomolgus TIM3 on cells (transfected CHO cells, activated cyno T cells, cyno spleen) (cynomolgus); assay: saturation binding of 125I-labeled antibody to CHO cells with cyno TIM3 (CHOcyno TIM3 25K), table row Kd, column Total; the cell has no unit, nM is taken from the concentration axis
T3 construct: also called cyno TIM3
T3 chain: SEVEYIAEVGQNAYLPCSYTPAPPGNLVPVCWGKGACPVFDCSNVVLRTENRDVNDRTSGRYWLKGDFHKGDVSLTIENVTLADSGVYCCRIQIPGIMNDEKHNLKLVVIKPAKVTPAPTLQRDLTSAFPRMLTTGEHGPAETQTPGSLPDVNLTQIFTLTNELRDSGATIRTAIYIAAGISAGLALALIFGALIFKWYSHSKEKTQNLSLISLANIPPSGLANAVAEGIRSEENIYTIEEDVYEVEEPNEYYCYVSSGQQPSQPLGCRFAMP

[4] = biological target: T1, human TIM3 on cells (transfected CHO …); assay: saturation binding of 125I-labeled antibody to CHO cells with human TIM3 (CHOhu TIM3 25K), table row Kd, column Specific Binding; the cell has no unit, nM is taken from the concentration axis and the box below
[5] = biological target: T1, human TIM3 on cells (transfected CHO …); assay: saturation binding of 125I-labeled antibody to CHO cells with human TIM3 (CHOhu TIM3 25K), table row Kd, column Total; the cell has no unit, nM is taken from the concentration axis

B1: anti-TIM3 monoclonal antibody 23B3 (antibody, V domains shown)
VH: QVQLVGSGGGLVKPGGSLRLSCAASGFTFSDYYMSWIRQAPGKGLEWVSFISGSGSIIYYADSVKGRFTISRDNAKNSLDLQMNSLRAEDTAVYYCARDGMVRGMNFYGMDVWGQGTTVTVSS
VL: not shown
[1]
  EC50: 0.0229 µg/mL

B2: TIM3.25 (23B3 VH-G6E-D79Y) (antibody, V domains shown)
VH: B1 VH with G6E, D80Y
VL: not shown
[2]
  Kd: 2.2 nM
  koff: 0.0013 s⁻¹
  kon: 600000 M⁻¹ s⁻¹

B3: anti-TIM3 monoclonal antibody 14H7 (antibody, V domains shown)
VH: QVHLVESGGGLVKPGGSLRLSCTAFSDYYMSWIRQAPGKGLEWLSYISNSGSIIYYADSVKGRFTISRDNAKNSVYLQMNSLRAEDTAVYYCARGRIGFFDYWGPGTLVTVSS
VL: not shown
[1]
  EC50: 0.0139 µg/mL

B4: TIM3.24 (14H7) (antibody, V domains shown)
VH: B3 VH
VL: not shown
notes: also called 14H7/TIM3.24
[2]
  Kd: 14 nM
  koff: 0.011 s⁻¹
  kon: 780000 M⁻¹ s⁻¹

B5: anti-TIM3 monoclonal antibody 13A3 (antibody, V domains shown)
VH: QLQLQESGPGLVKPSETLSLTCTVSGGSISSRSYYWGWIRQPPGKGLEWIGSIYYSGFTYYNPSLKSRVTISVDTSKNQFSLKLSSVTAADTAVYYCATGGPYGDYAHWFDPWGQGTLVTVSS
VL: not shown
notes: also called 13A3-g4
[1]
  EC50: 0.0116 µg/mL

B6: TIM3.18·IgG1.3 (antibody, V domains shown)
VH: B5 VH with N62Q, D111E
VL: not shown
notes: also called TIM3.18 (13A3) IgG1.3f (N60Q/D101E)
[3]
  Kd: 0.581 nM
[4]
  Kd: 0.262 nM
[5]
  Kd: 0.278 nM

B7: Tim3.18 (13A3 VH-N60Q-D101E), constant region not stated (antibody, V domains shown)
VH: B5 VH with N62Q, D111E
VL: not shown
[2]
  Kd: 7.1 nM
